From patent US20190263934A1
Each block holds one substance with its values, some of them ahead of it.

Columns and labels:
[1] = target: biotinylated hFcRn (human) (UniProt P55899); assay: SPR Biacore, pH 6.0
[2] = target: rFcRn (rat) (UniProt P13599); assay: SPR Biacore, pH 6.0
Target sequence in this assay (P13599 23-298 limits assumed, form in doubt, chain 1 of 2): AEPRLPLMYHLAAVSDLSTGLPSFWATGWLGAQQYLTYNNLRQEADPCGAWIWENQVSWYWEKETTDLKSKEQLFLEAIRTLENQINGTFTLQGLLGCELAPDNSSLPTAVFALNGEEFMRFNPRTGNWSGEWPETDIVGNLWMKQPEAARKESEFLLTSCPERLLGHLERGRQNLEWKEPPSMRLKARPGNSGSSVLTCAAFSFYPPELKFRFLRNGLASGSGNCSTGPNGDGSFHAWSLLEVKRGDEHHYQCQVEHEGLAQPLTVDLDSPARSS
Target sequence in this assay (P07151 21-119 limits assumed, form in doubt, chain 2 of 2, further chain): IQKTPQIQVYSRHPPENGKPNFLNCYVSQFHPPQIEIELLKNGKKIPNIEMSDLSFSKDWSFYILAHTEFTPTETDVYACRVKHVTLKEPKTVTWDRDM

[3] = target: biotinylated hFcRn (human) (UniProt P55899); assay: SPR Biacore, pH 7.4
[4] = target: rFcRn (rat) (UniProt P13599); assay: SPR Biacore, pH 7.4
Target sequence in this assay (P13599 23-298 limits assumed, form in doubt, chain 1 of 2): as the sequence (P13599 23-298 limits assumed, form in doubt, chain 1 of 2) above
Target sequence in this assay (P07151 21-119 limits assumed, form in doubt, chain 2 of 2, further chain): as the sequence (P07151 21-119 limits assumed, form in doubt, chain 2 of 2, further chain) above

[5] = target: biotinylated hFcRn (human) (UniProt P55899); assay: Biacore SPR, pH 6.0, bivalent fit
[6] = target: rFcRn (rat) (UniProt P13599); assay: Biacore SPR, pH 6.0, bivalent fit
Target sequence in this assay (P13599 23-298, form in doubt, chain 1 of 2): as the sequence (P13599 23-298 limits assumed, form in doubt, chain 1 of 2) above
Target sequence in this assay (P07151 21-119, form in doubt, chain 2 of 2, further chain): as the sequence (P07151 21-119 limits assumed, form in doubt, chain 2 of 2, further chain) above

[7] = target: rFcRn (rat) (UniProt P13599); assay: SPR Biacore, pH 7.4, 1000 nM antibody
Target sequence in this assay (P13599 23-298 limits assumed, form in doubt, chain 1 of 2): as the sequence (P13599 23-298 limits assumed, form in doubt, chain 1 of 2) above
Target sequence in this assay (P07151 21-119 limits assumed, form in doubt, chain 2 of 2, further chain): as the sequence (P07151 21-119 limits assumed, form in doubt, chain 2 of 2, further chain) above

[8] = target: biotinylated hFcRn (human) (UniProt P55899); assay: SPR Biacore, pH 6.0; remark: listed apart in the source
[9] = target: biotinylated hFcRn (human) (UniProt P55899); assay: SPR Biacore, pH 7.4, 1000 nM antibody
[10] = target: Human CD16a (FcγRIIIa) V158 with C-terminal HPC4 tag (human) (UniProt P08637); assay: Biacore SPR, captured HPC4-tagged FcγRIIIa-V158, steady-state fit
[11] = target: biotinylated hFcRn (human) (UniProt P55899); assay: Biacore SPR, pH 7.4, single antibody concentration, steady state
[12] = target: rFcRn (rat) (UniProt P13599); assay: as above
Target sequence in this assay (P13599 23-298, form in doubt, chain 1 of 2): as the sequence (P13599 23-298 limits assumed, form in doubt, chain 1 of 2) above
Target sequence in this assay (P07151 21-119, form in doubt, chain 2 of 2, further chain): as the sequence (P07151 21-119 limits assumed, form in doubt, chain 2 of 2, further chain) above

[13] = target: biotinylated human FcRn (hFcRn; p51 subunit residues 24-297 with C-terminal Avi-tag, β2-m residues 21-119) (human) (UniProt P55899); assay: Biacore SPR, Biotin CAPture, pH 7.4, 1000 nM antibody, steady state
[14] = target: biotinylated human FcRn (hFcRn; p51 subunit residues 24-297 with C-terminal Avi-tag, β2-m residues 21-119) (human) (UniProt P55899); assay: Biacore SPR, pH 7.4, steady state, 1000 nM antibody
[15] = target: biotinylated human FcRn (hFcRn; p51 subunit residues 24-297 with C-terminal Avi-tag, β2-m residues 21-119) (human) (UniProt P55899); assay: Biacore SPR, pH 6.0, apparent affinity
[16] = target: biotinylated human FcRn (hFcRn; p51 subunit residues 24-297 with C-terminal Avi-tag, β2-m residues 21-119) (human) (UniProt P55899); assay: Biacore SPR, human FcRn, pH 6.0 (column 'Affinity, pH 6.0 (nM)')
[17] = target: biotinylated human FcRn (hFcRn; p51 subunit residues 24-297 with C-terminal Avi-tag, β2-m residues 21-119) (human) (UniProt P55899); assay: Biacore SPR, Biotin CAPture of biotinylated human FcRn, pH 6.0
[18] = target: biotinylated human FcRn (hFcRn; p51 subunit residues 24-297 with C-terminal Avi-tag, β2-m residues 21-119) (human) (UniProt P55899); assay: Biacore SPR, human FcRn, pH 7.4, steady state
[19] = target: biotinylated human FcRn (hFcRn; p51 subunit residues 24-297 with C-terminal Avi-tag, β2-m residues 21-119) (human) (UniProt P55899); assay: Biacore SPR; second ratio column (inverse of c7)
[20] = target: biotinylated human FcRn (hFcRn; p51 subunit residues 24-297 with C-terminal Avi-tag, β2-m residues 21-119) (human) (UniProt P55899); assay: Biacore SPR; pH 6.0 affinity (M^-1) over pH 7.4 steady state RU

Sequence of Human CD16a (FcγRIIIa) V158 with C-terminal HPC4 tag (human) (P08637 17-208 F176V): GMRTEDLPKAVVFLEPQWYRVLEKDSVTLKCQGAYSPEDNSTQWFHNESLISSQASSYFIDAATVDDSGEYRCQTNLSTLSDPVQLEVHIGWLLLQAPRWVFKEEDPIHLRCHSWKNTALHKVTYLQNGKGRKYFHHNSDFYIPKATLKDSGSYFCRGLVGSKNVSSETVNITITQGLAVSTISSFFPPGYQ

Substance: mAb1 T307Q/N434Y (antibody)
- Kd [1]: 32.4 nM
- koff [1]: 0.0202 s⁻¹
- kon [1]: 622000 M⁻¹ s⁻¹
- Kd [2]: 4.11 nM
- koff [2]: 0.00048 s⁻¹
- kon [2]: 116000 M⁻¹ s⁻¹
- Steady State RU [3]: 38.4 RU
- Steady State RU [4]: 63 RU

Substance: mAb1 T307W (antibody)
- Kd [5]: 8740 nM
- Kd [6]: 111 nM
- Steady State RU [7]: 19.2 RU
- Kd [1]: 8740 nM
- Kd [2]: 111 nM
- Kd [8]: > 3000 nM
- Steady State RU [4]: 21.9 RU

Substance: mAb1 Y436N (antibody)
- Kd [6]: 233 nM
- Steady State RU [9]: 3.6 RU
- Steady State RU [7]: 17.4 RU
- Kd [2]: 233 nM

Substance: mAb1 Y436W (antibody)
- Kd [6]: 1140 nM
- Steady State RU [9]: 3.7 RU
- Steady State RU [7]: 10.3 RU
- Kd [2]: 1140 nM

Substance: mAb1 YDQN (M252Y/T256D/T307Q) (antibody)
- Kd [5]: 115 nM
- koff [5]: 0.28 s⁻¹
- kon [5]: 25000 M⁻¹ s⁻¹
- Kd [6]: 5.1 nM
- koff [6]: 0.0003 s⁻¹
- kon [6]: 5000 M⁻¹ s⁻¹
- Kd [10]: 1060 nM
- Steady State RU (pH 7.4) [11]: 19.8 RU
- Steady State RU (pH 7.4) [12]: 65.2 RU

Substance: mAb1 YDTN (M252Y/T256D) (antibody)
- Kd [6]: 5.9 nM
- Kd [10]: 1060 nM
- Steady State RU (pH 7.4) [11]: 9.7 RU
- Steady State RU (pH 7.4) [12]: 56 RU

Substance: mAb1 YDTY variant (M252Y/T256D/N434Y) (antibody)
- pH 7.4 RU [13]: 69.7 RU
- Steady State Binding, pH 7.4 (RU) [14]: 65.4 RU
- Ka [15]: 9.01e+07 M⁻¹

Substance: mAb1 YDWF variant (M252Y/T256D/T307W/N434F) (antibody)
- pH 7.4 RU [13]: 75.7 RU
- Steady State Binding, pH 7.4 (RU) [14]: 71.8 RU
- Ka [15]: 1.66e+08 M⁻¹

Substance: mAb1 YEQN (M252Y/T256E/T307Q) (antibody)
- Kd [5]: 218 nM
- koff [5]: 0.41 s⁻¹
- kon [5]: 19000 M⁻¹ s⁻¹
- Kd [6]: 7.8 nM
- koff [6]: 0.0004 s⁻¹
- kon [6]: 5000 M⁻¹ s⁻¹
- Kd [10]: 1620 nM
- Steady State RU (pH 7.4) [11]: 15.2 RU
- Steady State RU (pH 7.4) [12]: 61.8 RU

Substance: mAb1 YTTY variant (M252Y/N434Y) (antibody)
- pH 7.4 RU [13]: 54.4 RU
- Ratio (pH 7.4 RU / pH 6.0 affinity) [19]: 4.51e-07
- Ratio (pH 6.0/pH 7.4) [20]: 2.22e+06
- Steady State Binding, pH 7.4 (RU) [14]: 54.1 RU
- Ka [15]: 1.2e+08 M⁻¹
- Kd [17]: 22.9 nM

Substance: mAb1 YTWY variant (M252Y/T307W/N434Y) (antibody)
- pH 7.4 RU [13]: 77.1 RU
- Steady State Binding, pH 7.4 (RU) [14]: 75.1 RU
- Ka [15]: 1.06e+08 M⁻¹

Other lines, results leading:

- Kd [1]: 38.2 nM
- Kd [2]: 2.7 nM
- koff [2]: 0.00057 s⁻¹
- Steady State RU [3]: 30.5 RU
- Steady State RU [4]: 65.1 RU
Substance: mAb1 T307W/N434F (antibody)

- Kd [1]: 21.5 nM
- koff [1]: 0.0317 s⁻¹
- kon [1]: 1.48e+06 M⁻¹ s⁻¹
- Kd [2]: 0.62 nM
- koff [2]: 0.0003 s⁻¹
- kon [2]: 480000 M⁻¹ s⁻¹
- Steady State RU [3]: 37.2 RU
- Steady State RU [4]: 69.6 RU
Substance: mAb1 T307W/N434Y (antibody)

- Kd [6]: 131 nM
- Steady State RU [9]: 3.6 RU
- Steady State RU [7]: 16.3 RU
- Kd [2]: 131 nM
Substance: mAb1 Y436H (antibody)

- pH 7.4 RU [13]: 93.6 RU
- Kd [16]: 4.8 nM
- Kd [17]: 4.8 nM
- Steady State RU (pH 7.4) [18]: 93.6 RU
Substance: mAb1 YEQY variant (M252Y/T256E/T307Q/N434Y) (antibody)

- Kd [5]: 128 nM
- kon [5]: 59000 M⁻¹ s⁻¹
- Kd [6]: 8.4 nM
- koff [6]: 0.0027 s⁻¹
- kon [6]: 32000 M⁻¹ s⁻¹
- Kd [10]: 878 nM
- Steady State RU (pH 7.4) [11]: 9.8 RU
- Steady State RU (pH 7.4) [12]: 55.1 RU
Substance: mAb1 YETN (M252Y/T256E) (antibody)

- pH 7.4 RU [13]: 98.2 RU
- Steady State RU (pH 7.4) [18]: 98.2 RU
Substance: mAb1 YEWY variant (M252Y/T256E/T307W/N434Y) (antibody)

- Kd [5]: 342 nM
- koff [5]: 0.05 s⁻¹
- kon [5]: 143000 M⁻¹ s⁻¹
- Kd [6]: 18 nM
- koff [6]: 0.0012 s⁻¹
- kon [6]: 65000 M⁻¹ s⁻¹
- Kd [10]: 1040 nM
- Steady State RU (pH 7.4) [11]: 13.2 RU
- Steady State RU (pH 7.4) [12]: 53.9 RU
Substance: mAb1 YTE (M252Y/S254T/T256E) (antibody)

- Kd [5]: 118 nM
- kon [5]: 48000 M⁻¹ s⁻¹
- Kd [6]: 5.2 nM
- koff [6]: 0.0011 s⁻¹
- kon [6]: 21000 M⁻¹ s⁻¹
- Kd [10]: 896 nM
- Steady State RU (pH 7.4) [11]: 15.9 RU
- Steady State RU (pH 7.4) [12]: 66.1 RU
Substance: mAb1 YTWN (M252Y/T307W) (antibody)
